Assay: Whole-cell C—H amination of azide 1
Format: cell-based, E. coli BL21(DE3)
Details: intact E. coli cells; for Yield sulfonamide (%) / Yield sultam (%): OD600=30, 2 mM azide 1, 24 hours; for Yield sulfonamide (%) / Yield sultam (%) / TTN: anaerobic; for TTN: added glucose; for % ee: (S − R)/(S + R)
Experimental: Reaction conditions were as follows: 2 mM azide 1, 25 mM glucose, E. coli BL21(DE3) cells in M9-N minimal medium (OD600=30), 2.5% DMSO, oxygen depletion system (100 U ml^−1 glucose oxidase, 1400 U ml^−1 catalase) reacted for 24 hours under anaerobic conditions at 298 K. Yields determined by HPLC quantification.
(§1) Whole cell reactions used E. coli BL21(DE3) cells containing P450 or P411 catalysts, which were expressed and prepared as described elsewhere (Coelho, P. S. et al., Highly efficient carbene transfer to olefins catalyzed in vivo. Submitted (2013)). Following expression, cells were resuspended to an OD600 of 30 in M9 salts lacking NH4Cl (M9-N), and then degassed by sparging with argon in a sealed 6 mL crimp vial for at least 0.5 h. Separately, glucose (250 mM dissolved in 1×M9-N, 40 μL, or multiples thereof) was degassed by sparging with argon for at least five minutes. The oxygen quenching mixture was added to sealed 2 mL crimp vials containing stir bars and the headspace of the vials was purged with argon for five minutes at which time glucose, and then cells were added by syringe. Substrate (80 mM arylsulfonyl azide, 10 uL in DMSO) was added via syringe, and the reactions were stirred at room temperature for 24 h under positive argon pressure.
as §1, with “E.” for “Whole cell reactions used E.”, “catalysts” for “catalysts, which”, “Coelho,” for “(Coelho,”, “μL” for “uL”, “pressure. Reactions were quenched in a manner identical to reactions containing purified enzymes as described above. For chiral HPLC, the reactions were extracted and purified in an identical manner as for reactions that employed purified enzymes. Lyophilized intact cells containing sucrose as a cryoprotectant were prepared as described elsewhere (Coelho, P. S. et al., Highly efficient carbene transfer to olefins catalyzed in vivo. Submitted (2013)). The resulting cell powder, containing expressed ABC-CIS (26 mg) were added along with a stir bar to a 2 mL crimp vial and then sealed. The headspace of the vial was degassed, oxygen quenching system (40 μL) was added via syringe, followed by degassed glucose (250 mM, 40 μL), M9-N (310 μL), and finally substrate (80 mM 1, 10 μL). Lyophilized cell reactions were stirred for 24 h at room temperature, then quenched and analyzed as described above. […]” for “pressure.”
The preparative reaction was scaled up proportionally from small-scale reactions. E. coli BL21 cells containing ABC-CIS (OD600 30, 90 mL in M9-N) were sparged with argon for 45 minutes in a round bottom flask (250 mL) containing a stir bar. Separately, glucose solution (250 mM, 11.6 mL) was sparged with argon in a conical flask. The oxygen quenching mixture (10×, 11.6 mL) was degassed in a conical flask that was placed under high vacuum until slight foaming occurred (1-2 s) and then back-filled with argon; this sequence was repeated several times. Sparged glucose solution was then added to the anaerobic cell suspension via syringe, followed by the oxygen quenching system. Finally, substrate 1 (80 mM, 2.9 mL DMSO) was added dropwise via syringe, and the reaction was stirred for 24 h at room temperature. To quench the reaction, dilute HCl (3 M, 8.7 mL) and acetonitrile (125 mL) were added. […]

Row | Molecule | Yield sulfonamide (%) | Yield sultam (%) | TTN | % ee [%]
1 | ABC-CIS: BM3-CIS + C400S (protein, listed as Bacillus megaterium, cytochrome P450NADPH-P-450 reductase precursor, cytochrome P450 (BM3), CYP102A1, BM3-CIS + C400S) TIKEMPQPKTFGELKNLPLLNTDKPVQALMKIADELGEIFKFEAPGRVTRYLSSQRLIKEACDESRFDKNLSQALKFARDFAGDGLVTSWTHEKNWKKAHNILLPSFSQQAMKGYHAMMVDIAVQLVQKWERLNADEHIEVSEDMTRLTLDTIGLCGFNYRFNSFYRDQPHPFIISMVRALDEVMNKLQRANPDDPAYDENKRQFQEDIKVMNDLVDKIIADRKARGEQSDDLLTQMLNGKDPETGEPLDDGNIRYQIITFLIAGHEATSGLLSFALYFLVKNPHVLQKVAEEAARVLVDPVPSYKQVKQLKYVGMVLNEALRLWPTAPAFSLYAKEDTVLGGEYPLEKGDEVMVLIPQLHRDKTVWGDDVEEFRPERFENPSAIPQHAFKPFGNGQRASIGQQFALHEATLVLGMMLKHFDFEDHTNYELDIKETLTLKPKGFVVKAKSKKIPLGGIPSPSTEQSAKKVRKKAENAHNTPLLVLYGSNMGTAEGTARDLADIAMSKGFAPQVATLDSHAGNLPREGAVLIVTASYNGHPPDNAKQFVDWLDQASADEVKGVRYSVFGCGDKNWATTYQKVPAFIDETLAAKGAENIADRGEADASDDFEGTYEEWREHMWSDVAAYFNLDIENSEDNKSTLSLQFVDSAADMPLAKMHGAFSTNVVASKELQQPGSARSTRHLEIELPKEASYQEGDHLGVIPRNYEGIVNRVTARFGLDASQQIRLEAEEEKLAHLPLAKTVSVEELLQYVELQDPVTRTQLRAMAAKTVCPPHKVELEALLEKQAYKEQVLAKRLTMLELLEKYPACEMKFSEFIALLPSIRPRYYSISSSPRVDEKQASITVSVVSGEAWSGYGEYKGIASNYLAELQEGDTITCFISTPQSEFTLPKDPETPLIMVGPGTGVAPFRGFVQARKQLKEQGQSLGEAHLYFGCRSPHEDYLYQEELENAQSEGIITLHTAFSRMPNQPKTYVQHVMEQDGKKLIELLDQGAHFYICGDGSQMAPAVEATLMKSYADVHQVSEADARLWLQQLEEKGRYAKDVWAG | 50 | 46 | 680 | 60
2 | P450BM3: wild-type cytochrome P450BM3 from Bacillus megaterium (SEQ ID NO: 1) (protein, listed as Bacillus megaterium, cytochrome P450NADPH-P-450 reductase precursor, cytochrome P450 (BM3), CYP102A1) TIKEMPQPKTFGELKNLPLLNTDKPVQALMKIADELGEIFKFEAPGRVTRYLSSQRLIKEACDESRFDKNLSQALKFVRDFAGDGLFTSWTHEKNWKKAHNILLPSFSQQAMKGYHAMMVDIAVQLVQKWERLNADEHIEVPEDMTRLTLDTIGLCGFNYRFNSFYRDQPHPFITSMVRALDEAMNKLQRANPDDPAYDENKRQFQEDIKVMNDLVDKIIADRKASGEQSDDLLTHMLNGKDPETGEPLDDENIRYQIITFLIAGHETTSGLLSFALYFLVKNPHVLQKAAEEAARVLVDPVPSYKQVKQLKYVGMVLNEALRLWPTAPAFSLYAKEDTVLGGEYPLEKGDELMVLIPQLHRDKTIWGDDVEEFRPERFENPSAIPQHAFKPFGNGQRACIGQQFALHEATLVLGMMLKHFDFEDHTNYELDIKETLTLKPEGFVVKAKSKKIPLGGIPSPSTEQSAKKVRKKAENAHNTPLLVLYGSNMGTAEGTARDLADIAMSKGFAPQVATLDSHAGNLPREGAVLIVTASYNGHPPDNAKQFVDWLDQASADEVKGVRYSVFGCGDKNWATTYQKVPAFIDETLAAKGAENIADRGEADASDDFEGTYEEWREHMWSDVAAYFNLDIENSEDNKSTLSLQFVDSAADMPLAKMHGAFSTNVVASKELQQPGSARSTRHLEIELPKEASYQEGDHLGVIPRNYEGIVNRVTARFGLDASQQIRLEAEEEKLAHLPLAKTVSVEELLQYVELQDPVTRTQLRAMAAKTVCPPHKVELEALLEKQAYKEQVLAKRLTMLELLEKYPACEMKFSEFIALLPSIRPRYYSISSSPRVDEKQASITVSVVSGEAWSGYGEYKGIASNYLAELQEGDTITCFISTPQSEFTLPKDPETPLIMVGPGTGVAPFRGFVQARKQLKEQGQSLGEAHLYFGCRSPHEDYLYQEELENAQSEGIITLHTAFSRMPNQPKTYVQHVMEQDGKKLIELLDQGAHFYICGDGSQMAPAVEATLMKSYADVHQVSEADARLWLQQLEEKGRYAKDVWAG | 33 | 0.5 | 5.1 | –
3 | BM3-T268A: P450BM3 variant: T268A (protein, listed as Bacillus megaterium, cytochrome P450NADPH-P-450 reductase precursor, cytochrome P450 (BM3), CYP102A1) TIKEMPQPKTFGELKNLPLLNTDKPVQALMKIADELGEIFKFEAPGRVTRYLSSQRLIKEACDESRFDKNLSQALKFVRDFAGDGLFTSWTHEKNWKKAHNILLPSFSQQAMKGYHAMMVDIAVQLVQKWERLNADEHIEVPEDMTRLTLDTIGLCGFNYRFNSFYRDQPHPFITSMVRALDEAMNKLQRANPDDPAYDENKRQFQEDIKVMNDLVDKIIADRKASGEQSDDLLTHMLNGKDPETGEPLDDENIRYQIITFLIAGHEATSGLLSFALYFLVKNPHVLQKAAEEAARVLVDPVPSYKQVKQLKYVGMVLNEALRLWPTAPAFSLYAKEDTVLGGEYPLEKGDELMVLIPQLHRDKTIWGDDVEEFRPERFENPSAIPQHAFKPFGNGQRACIGQQFALHEATLVLGMMLKHFDFEDHTNYELDIKETLTLKPEGFVVKAKSKKIPLGGIPSPSTEQSAKKVRKKAENAHNTPLLVLYGSNMGTAEGTARDLADIAMSKGFAPQVATLDSHAGNLPREGAVLIVTASYNGHPPDNAKQFVDWLDQASADEVKGVRYSVFGCGDKNWATTYQKVPAFIDETLAAKGAENIADRGEADASDDFEGTYEEWREHMWSDVAAYFNLDIENSEDNKSTLSLQFVDSAADMPLAKMHGAFSTNVVASKELQQPGSARSTRHLEIELPKEASYQEGDHLGVIPRNYEGIVNRVTARFGLDASQQIRLEAEEEKLAHLPLAKTVSVEELLQYVELQDPVTRTQLRAMAAKTVCPPHKVELEALLEKQAYKEQVLAKRLTMLELLEKYPACEMKFSEFIALLPSIRPRYYSISSSPRVDEKQASITVSVVSGEAWSGYGEYKGIASNYLAELQEGDTITCFISTPQSEFTLPKDPETPLIMVGPGTGVAPFRGFVQARKQLKEQGQSLGEAHLYFGCRSPHEDYLYQEELENAQSEGIITLHTAFSRMPNQPKTYVQHVMEQDGKKLIELLDQGAHFYICGDGSQMAPAVEATLMKSYADVHQVSEADARLWLQQLEEKGRYAKDVWAG | 51 | 7.8 | 26 | 84

— US20150267232A1, “IN VIVO AND IN VITRO CARBENE INSERTION AND NITRENE TRANSFER REACTIONS CATALYZED BY HEME ENZYMES” (California Institute of Technology, priority 2012, published 2015)
